Data published in article PMC7614096, “Head-to-tail polymerization by VEL proteins underpins cold-induced Polycomb silencing in flowering control” (Cell Reports, 2022).

B1: Lip-VIN3VEL (residues 500–603), wild type [Arabidopsis thaliana] / itself (parent)
chain: GKQGGNKRFKSRTVSLNEKPEINNAANGVGDKDLGHIVKTIRCLEEEGHIDKSFRERFLTWYSLRATHREVRVVKIFVETFMEDLSSLGQQLVDTFSESILSKR
B2: Lip-VEL1VEL (residues 589–692), wild type [Arabidopsis thaliana] / itself (parent)
chain: SDEIKNRQARIEISMKDNCNNGDHSANGGTESGLEHCVKIIRQLECSGHIDKNFRQKFLTWYSLRATSQEIRVVKIFIDTFIDDPMALAEQLIDTFDDRVSIKR

Key:
Experiment in all cases: SEC-MALS
[1] = variants of: B1; details: with itself; predicted molecular mass 20.3 kDa; concentration not given
[2] = variants of: B1; details: with itself; predicted molecular mass 20.3 kDa; concentration not given; remark: listed apart in the source
[3] = variants of: B2; details: with itself; 255 µM sample; predicted molecular mass 23.4 kDa
[4] = variants of: B2; details: with itself; 255 µM sample; predicted molecular mass 23.4 kDa; remark: listed apart in the source

Variant | screen value [1] [molecules] | screen value [2] [kDa] | screen value [3] [molecules] | screen value [4] [kDa]
GKQGGNKRFKSRTVSLNEKPEINNAANGVGDKDLGHIVKTIRCLEEEGHIDKSFREDFLTWYSLRATHREVRVVKIFVETFMEDLSSLGQQLVDTFSESILSKR | 1.2 | 24.6 |  | 
SDEIKNRQARIEISMKDNCNNGDHSANGGTESGLEHCVKIIRQLECSGHIDKNFAQDFLTWYSLRATSQEIRVVKIFIDTFIDDPMALAEQLIDTFDDRVSIKR |  |  | 1.1 | 25

Results, then the variant that gave them:

screen value [1] [molecules] | screen value [2] [kDa] | screen value [3] [molecules] | screen value [4] [kDa] | Variant
1.2 | 23.8 |  |  | GKQGGNKRFKSRTVSLNEKPEINNAANGVGDKDLGHIVKTIHCLEEEGHIDKSFRERFLTWYSLRATHREVRVVKIFVETFMEDLSSLGQQLVDTFSESILSKR
1.6 | 33.5 |  |  | GKQGGNKRFKSRTVSLNEKPEINNAANGVGDKDLGHIVKTIRCLEEEGHIDKSFRERFLTWYSDRATHREVRVVKIFVETFMEDLSSLGQQLVDTFSESILSKR
